Measured values from publication PMC4283936.

B1: phoP -55 (dsDNA)
DNA 1: AGACTACTGGCAACGAGCTTTCAGGAATTACAC
DNA 2: GTGTAATTCCTGAAAGCTCGTTGCCAGTAGTCT
B2: lipF -572 (dsDNA)
DNA 1: AGACGTACAGCAAACTCCCAGTCATACA
DNA 2: TGTATGACTGGGAGTTTGCTGTACGTCT
B3: pks3 -236 (dsDNA)
DNA 1: CGACGTCTGGTAGCGGCATGGCAACGGCCTGTG
DNA 2: CACAGGCCGTTGCCATGCCGCTACCAGACGTCG
B4: Rv2331 (dsDNA)
DNA 1: GTCCTCGCAGCAAGAAAACAGCGAAAGC
DNA 2: GCTTTCGCTGTTTTCTTGCTGCGAGGAC
B5: fas (dsDNA)
DNA 1: CGGCGTAGAGCGAATTCCCAGCATAACG
DNA 2: CGTTATGCTGGGAATTCGCTCTACGCCG
B6: pks2 (dsDNA)
DNA 1: AAAGACACAGCTACATCGAAGGATTGCT
DNA 2: AGCAATCCTTCGATGTAGCTGTGTCTTT
B7: Rv3312a (dsDNA)
DNA 1: TGGGTCACAGCGAGTAATCAGCAAGTTC
DNA 2: GAACTTGCTGATTACTCGCTGTGACCCA
B8: Rv1639c (dsDNA)
DNA 1: CGGATCACAGGAAACCCCCAACAAATCA
DNA 2: TGATTTGTTGGGGGTTTCCTGTGATCCG
B9: sirA (dsDNA)
DNA 1: CGTCTCCCAGCGGATTCCCGGGTCGGCC
DNA 2: GGCCGACCCGGGAATCCGCTGGGAGACG
B10: cadI (dsDNA)
DNA 1: CGGTACACAGCGCTTGCAGGGCTTCAGG
DNA 2: CCTGAAGCCCTGCAAGCGCTGTGTACCG
B11: cfp2 (dsDNA)
DNA 1: TCGCTCACAGCTACGACACAGACTTGCC
DNA 2: GGCAAGTCTGTGTCGTAGCTGTGAGCGA
B12: Rv0520 (dsDNA)
DNA 1: GCCCGCACAGCCACGCCGTAGCACCGGC
DNA 2: GCCGGTGCTACGGCGTGGCTGTGCGGGC
B13: Rv1217c (dsDNA)
DNA 1: GAGGTCGCAGCCGAGCAACAGGTGGCAA
DNA 2: TTGCCACCTGTTGCTCGGCTGCGACCTC
B14: Rv2010 (dsDNA)
DNA 1: GAACTCGTGGCCGCCGCACAGCGGATGT
DNA 2: ACATCCGCTGTGCGGCGGCCACGAGTTC
B15: Rv3881c (dsDNA)
DNA 1: ATGGTCACAGTCGGGCCACAGTTCGAG
DNA 2: CTCGAACTGTGGCCCGACTGTGACCAT
B16: cdh (dsDNA)
DNA 1: GCGAGCAGGGCTGCCGCACAGCGATCTT
DNA 2: AAGATCGCTGTGCGGCAGCCCTGCTCGC
B17: ptrBa -162 (dsDNA)
DNA 1: TTGTCCGCAGCTGGCTCACCGGCTCCGA
DNA 2: TCGGAGCCGGTGAGCCAGCTGCGGACAA
B18: Rv3877 (dsDNA)
DNA 1: CTCGGCGCAGCGCGCGCTCAGCGACGCC
DNA 2: GGCGTCGCTGAGCGCGCGCTGCGCCGAG
B19: aroG (dsDNA)
DNA 1: TTCGTCTCATCACGTCCACAGACGATGC
DNA 2: GCATCGTCTGTGGACGTGATGAGACGAA
B20: umaA (dsDNA)
DNA 1: TGACGCAAGGCGAGATCACAGACCGAGA
DNA 2: TCTCGGTCTGTGATCTCGCCTTGCGTCA

What follows are binders tested against PhoP (Mycobacterium tuberculosis, UniProt P71814 1-247) (assay: ITC).
With B1 the Kd was 104 ± 10 nM. B2 was tested, and the Kd was 115 ± 8 nM. For B3, the Kd was 130 ± 11 nM. For B4, the Kd was 130 ± 6.1 nM. In the case of B5, the Kd is reported as 144 ± 6 nM. B6 gave a Kd of 154 ± 12 nM. B7 gave a Kd of 160 ± 8 nM. In the case of B8, the Kd is reported as 198 ± 12 nM. B9 showed a Kd of 332 ± 17 nM. Binder B10 has a Kd of 403 ± 20 nM. With B11 the Kd was 21.4 ± 1.6 nM. Binder B12 has a Kd of 472 ± 20 nM. In the case of B13, the Kd is reported as 588 ± 17 nM. For B14, the Kd was 637 ± 16 nM. B15 was tested, and the Kd was 714 ± 51 nM. In the case of B16, the Kd is reported as 935 ± 52 nM. B17 was tested, and the Kd was 980 ± 77 nM. Binder B18 has a Kd of 1150 ± 66 nM. Work on B19 yielded a Kd of 1160 ± 41 nM. B20 gave a Kd of 1200 ± 58 nM.
